Results taken from publication PMC10397247.
Each block holds one binder with its values, some of them ahead of it.

Legend:
4H584-bH = target: T1, 4H584-bH; assay: two-hybrid library CCNG1;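 also: natural log of median RNA to DNA barcode read ratio; higher means stronger binding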
T1 chain: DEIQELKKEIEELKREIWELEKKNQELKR

4H850-bH = target: T2, 4H850-bH; assay: two-hybrid library CCNG1;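 also: natural log of median RNA to DNA barcode read ratio; higher means stronger binding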
T2 chain: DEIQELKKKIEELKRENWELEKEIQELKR

4H906-bH = target: T3, 4H906-bH; assay: two-hybrid library CCNG1;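 also: natural log of median RNA to DNA barcode read ratio; higher means stronger binding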
T3 chain: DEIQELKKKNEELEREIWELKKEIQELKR

4H619-bH = target: T4, 4H619-bH; assay: two-hybrid library CCNG1;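 also: natural log of median RNA to DNA barcode read ratio; higher means stronger binding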
T4 chain: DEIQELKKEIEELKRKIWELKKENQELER

4H570-bH = target: T5, 4H570-bH; assay: two-hybrid library CCNG1;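 also: natural log of median RNA to DNA barcode read ratio; higher means stronger binding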
T5 chain: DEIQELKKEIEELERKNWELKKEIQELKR

4H3718-AA = target: T6, 4H3718-AA; assay: two-hybrid library CCmax; conditions: mean of both orientations;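 also: natural log of median RNA to DNA barcode read ratio; higher means stronger binding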
T6 chain: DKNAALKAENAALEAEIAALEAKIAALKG

4H3378-AA = target: T7, 4H3378-AA; assay: two-hybrid library CCmax; conditions: mean of both orientations
T7 chain: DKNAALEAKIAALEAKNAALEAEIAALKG

4H340-AA = target: T8, 4H340-AA; assay: two-hybrid library CCmax; conditions: mean of both orientations
T8 chain: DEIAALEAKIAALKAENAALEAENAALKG

4H697-AA = target: T9, 4H697-AA; assay: two-hybrid library CCmax; conditions: mean of both orientations
T9 chain: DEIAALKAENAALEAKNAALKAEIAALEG

4H3631-AA = target: T10, 4H3631-AA; assay: two-hybrid library CCmax; conditions: mean of both orientations
T10 chain: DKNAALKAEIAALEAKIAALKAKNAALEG

4H3697-AA = target: T11, 4H3697-AA; assay: two-hybrid library CCmax; conditions: mean of both orientations
T11 chain: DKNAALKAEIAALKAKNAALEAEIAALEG

4H3056-AA = target: T12, 4H3056-AA; assay: two-hybrid library CCmax; conditions: mean of both orientations
T12 chain: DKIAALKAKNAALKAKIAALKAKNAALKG

4H3162-AA = target: T13, 4H3162-AA; assay: two-hybrid library CCmax; conditions: mean of both orientations
T13 chain: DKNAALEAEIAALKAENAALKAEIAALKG

4H32-AA = target: T14, 4H32-AA; assay: two-hybrid library CCmax; conditions: mean of both orientations
T14 chain: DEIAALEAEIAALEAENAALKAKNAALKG

4H3588-AA = target: T15, 4H3588-AA; assay: two-hybrid library CCmax; conditions: mean of both orientations
T15 chain: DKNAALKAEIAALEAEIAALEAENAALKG

4H3606-AA = target: T16, 4H3606-AA; assay: two-hybrid library CCmax; conditions: mean of both orientations
T16 chain: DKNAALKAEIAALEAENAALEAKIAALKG

4H3865-AA = target: T17, 4H3865-AA; assay: two-hybrid library CCmax; conditions: mean of both orientations
T17 chain: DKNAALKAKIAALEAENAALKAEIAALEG

4H3413-AA = target: T18, 4H3413-AA; assay: two-hybrid library CCmax; conditions: mean of both orientations
T18 chain: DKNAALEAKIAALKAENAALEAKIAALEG

4H384-AA = target: T19, 4H384-AA; assay: two-hybrid library CCmax; conditions: mean of both orientations
T19 chain: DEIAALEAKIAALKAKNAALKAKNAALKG

4H3133-AA = target: T20, 4H3133-AA; assay: two-hybrid library CCmax; conditions: mean of both orientations
T20 chain: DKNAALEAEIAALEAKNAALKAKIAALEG

4H982-AA = target: T21, 4H982-AA; assay: two-hybrid library CCmax; conditions: mean of both orientations
T21 chain: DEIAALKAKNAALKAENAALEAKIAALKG

4H2907-AA = target: T22, 4H2907-AA; assay: two-hybrid library CCmax
T22 chain: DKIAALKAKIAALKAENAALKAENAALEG

4H72-bN = target: T23, 4H72-bN; assay: two-hybrid library CCNG1
T23 chain: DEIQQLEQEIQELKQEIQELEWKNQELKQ

4H568-bN = target: T24, 4H568-bN; assay: two-hybrid library CCNG1
T24 chain: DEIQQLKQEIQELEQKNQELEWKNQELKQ

4H4001-bN = target: T25, 4H4001-bN; assay: two-hybrid library CCNG1
T25 chain: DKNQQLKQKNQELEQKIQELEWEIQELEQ

4H953-bN = target: T26, 4H953-bN; assay: two-hybrid library CCNG1
T26 chain: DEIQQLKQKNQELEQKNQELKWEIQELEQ

4H754-bN = target: T27, 4H754-bN; assay: two-hybrid library CCNG1
T27 chain: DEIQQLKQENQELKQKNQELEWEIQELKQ

4H967-bN = target: T28, 4H967-bN; assay: two-hybrid library CCNG1
T28 chain: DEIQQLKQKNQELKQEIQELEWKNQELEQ

4H883-bN = target: T29, 4H883-bN; assay: two-hybrid library CCNG1
T29 chain: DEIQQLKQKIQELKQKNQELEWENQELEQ

4H797-bN = target: T30, 4H797-bN; assay: two-hybrid library CCNG1
T30 chain: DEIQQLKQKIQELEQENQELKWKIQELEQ

4H908-bN = target: T31, 4H908-bN; assay: two-hybrid library CCNG1
T31 chain: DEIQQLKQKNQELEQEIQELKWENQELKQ

4H687-bN = target: T32, 4H687-bN; assay: two-hybrid library CCNG1
T32 chain: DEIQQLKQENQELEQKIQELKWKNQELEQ

4H607-bN = target: T33, 4H607-bN; assay: two-hybrid library CCNG1
T33 chain: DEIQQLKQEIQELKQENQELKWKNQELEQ

4H717-bN = target: T34, 4H717-bN; assay: two-hybrid library CCNG1
T34 chain: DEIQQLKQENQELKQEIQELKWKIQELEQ

4H918-bN = target: T35, 4H918-bN; assay: two-hybrid library CCNG1
T35 chain: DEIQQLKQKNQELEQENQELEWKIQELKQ

4H454-bN = target: T36, 4H454-bN; assay: two-hybrid library CCNG1
T36 chain: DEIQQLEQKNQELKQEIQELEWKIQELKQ

4H3855-bN = target: T37, 4H3855-bN; assay: two-hybrid library CCNG1
T37 chain: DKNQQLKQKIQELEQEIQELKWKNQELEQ

4H730-bN = target: T38, 4H730-bN; assay: two-hybrid library CCNG1
T38 chain: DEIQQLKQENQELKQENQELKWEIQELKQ

4H949-bN = target: T39, 4H949-bN; assay: two-hybrid library CCNG1
T39 chain: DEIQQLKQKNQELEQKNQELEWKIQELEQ

4H932-bN = target: T40, 4H932-bN; assay: two-hybrid library CCNG1
T40 chain: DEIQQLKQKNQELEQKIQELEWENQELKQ

4H349-bN = target: T41, 4H349-bN; assay: two-hybrid library CCNG1
T41 chain: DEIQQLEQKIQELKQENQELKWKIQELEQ

4H796-bN = target: T42, 4H796-bN; assay: two-hybrid library CCNG1
T42 chain: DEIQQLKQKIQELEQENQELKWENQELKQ

4H56-bN = target: T43, 4H56-bN; assay: two-hybrid library CCNG1
T43 chain: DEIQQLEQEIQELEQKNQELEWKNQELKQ

4H967-AA = target: T44, 4H967-AA; assay: two-hybrid library CCmax
T44 chain: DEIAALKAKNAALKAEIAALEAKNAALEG

interaction score (4H3718-AA): -1.65
interaction score (4H3378-AA): -1.66
interaction score (4H340-AA): 1.31
interaction score (4H697-AA): -1.18
interaction score (4H3631-AA): -1.81
interaction score (4H3697-AA): -1.97
interaction score (4H3056-AA): -2.08
interaction score (4H3162-AA): -1.39
interaction score (4H32-AA): 2.38
interaction score (4H3588-AA): 1.57
interaction score (4H3606-AA): 0.48
interaction score (4H3865-AA): -1.75
interaction score (4H3413-AA): -2.21
interaction score (4H384-AA): 1.15
interaction score (4H3133-AA): -1.24
interaction score (4H982-AA): -1.58
interaction score (4H2907-AA): -0.959
Binder: DKIAALKAKIAALKAENAALKAENAALEG [4H2907-AA]

interaction score (4H72-bN): -0.0369
interaction score (4H568-bN): 0.0333
interaction score (4H4001-bN): 0.118
interaction score (4H953-bN): -0.653
interaction score (4H754-bN): -0.585
interaction score (4H967-bN): -0.415
interaction score (4H883-bN): -0.0328
interaction score (4H797-bN): -0.544
interaction score (4H908-bN): -0.268
interaction score (4H687-bN): -1.97
interaction score (4H607-bN): -0.914
interaction score (4H717-bN): -0.464
interaction score (4H918-bN): -1.48
interaction score (4H454-bN): -0.525
interaction score (4H3855-bN): 0.124
Binder: DKNQQLKQKIQELEQEIQELKWKNQELEQ [4H3855-bN]

Second part, the binder before the results:

Binder: DEIQELKKEIEELERKNWELKKEIQELKR [4H570-bH]
interaction score (4H584-bH): -1.16
interaction score (4H850-bH): 1.01
interaction score (4H906-bH): 0.224
interaction score (4H619-bH): -0.75
interaction score (4H570-bH): 1.19

Binder: DEIQQLEQKIQELKQENQELKWKIQELEQ [4H349-bN]
interaction score (4H730-bN): -1.05
interaction score (4H949-bN): -0.958
interaction score (4H932-bN): -0.258
interaction score (4H349-bN): -1.89
interaction score (4H796-bN): -0.249
interaction score (4H56-bN): -0.3

Binder: DEIAALKAKNAALKAEIAALEAKNAALEG [4H967-AA]
interaction score (4H967-AA): -0.481
